Paper PMC3542337

Target: E18A DJ-1-FLAG (in HeLa cells) (human) (UniProt Q99497)
Assay: cross-linking; HeLa cells transfected with FLAG-tagged DJ-1, without or with 20 uM CCCP for 7 hrs; cell extracts treated with 100 uM DSS for 10 min; Western blot with anti-FLAG

ratio of dimer (cells treated with CCCP): 68.7
ratio of dimer (cells without CCCP): 57.2
Substance: E18A DJ-1-FLAG (in HeLa cells) (from UniProt Q99497 1-189) (natural protein)
